Source: the supplement of paper PMC7877785
± gives the uncertainty stated by the source.

Experiment: self-splicing fitness, log relative to wild type (ln ratio); higher = more splicing; Tetrahymena group I intron in knt gene, E. coli kanamycin selection, DiMSum; sequences stand for … in CUCUCU…GGAGGGAAAAGUUAUCAGGCAUGCACCUGGUAGCUAGUCUUUAAACCAAUAGAUUGCAUCGGUUUAAAAGGCAAGACCGUCAAAUUGCGGGAAAGGGGUCAACAGCCGUUCAGUACCAAGUCUCAGGGGAAACUUUGAGAUGGCCUUGCAAAGGGUAUGGUAAUAAGCUGACGGACAUGGUCCUAACCACGCAGCCAAGUCCUAAGUCAACAGAUCUUCUGUUGAUAUGGAUGCAGUUCACAGACUAAAUGUCGGUCGGGGAAGAUGUAUUCUUCUCAUAAGAUAUAGUCGGACCUCUCCUUAAUGGGAGCUAGCGGAUGAAGUGAUGCAACACUGGAGCCGCUGGGAACUAAUUUGUAUGCGAAAGUAUAUUGAUUAGUUUUGGAGUACUCGUGGUCG
Outline: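 Colonies from six replicate transformations of E. coli BL21(DE3) were pooled and amplicon-sequenced on an Illumina HiSeq 2500. The library placed an intron with all eight P1ex-region nucleotides randomised inside the knt kanamycin-resistance gene on pET-22b(+), and cells grew overnight at 37°C or 30°C on LB agar with or without 25 μg/mL kanamycin (plus 100 μg/mL carbenicillin, 50 μM IPTG, 0.2% rhamnose). Fitness is the DiMSum error-weighted combination of wild-type-normalised replicate fold changes, kanamycin versus none.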

CAACAGCAAUAUUACGCAUC
self-splicing fitness (ln) (30 °C): -3.3 ± 0.16
self-splicing fitness (ln) (37 °C): -2.29 ± 0.14

CAACAGCAAUAUUACGCCAC
self-splicing fitness (ln) (30 °C): -3.26 ± 0.37
self-splicing fitness (ln) (37 °C): -2.39 ± 0.31

CAACAGCAAUAUUACGCCUA
self-splicing fitness (ln) (30 °C): -2.08 ± 0.12
self-splicing fitness (ln) (37 °C): -1.31 ± 0.11

CAACAGCAAUAUUACGCGUC
self-splicing fitness (ln) (30 °C): -3.55 ± 0.22
self-splicing fitness (ln) (37 °C): -1.98 ± 0.13

CAACAGCAAUAUUACGCUGC
self-splicing fitness (ln) (30 °C): -3.4 ± 0.23
self-splicing fitness (ln) (37 °C): -2.21 ± 0.36

CAACAGCAAUAUUACGCUUA
self-splicing fitness (ln) (30 °C): -2.13 ± 0.12
self-splicing fitness (ln) (37 °C): -0.653 ± 0.09

CAACAGCAAUAUUACGGAAC
self-splicing fitness (ln) (30 °C): -4.2 ± 0.28
self-splicing fitness (ln) (37 °C): -3.48 ± 0.23

CAACAGCAAUAUUACGGCCG
self-splicing fitness (ln) (30 °C): 0.255 ± 0.072
self-splicing fitness (ln) (37 °C): 0.563 ± 0.1

CAACAGCAAUAUUACGGGAA
self-splicing fitness (ln) (30 °C): -2.48 ± 0.16
self-splicing fitness (ln) (37 °C): -2.04 ± 0.14

CAACAGCAAUAUUACGGGGC
self-splicing fitness (ln) (30 °C): -3.71 ± 0.16
self-splicing fitness (ln) (37 °C): -3.4 ± 0.17

CAACAGCAAUAUUACGUACU
self-splicing fitness (ln) (30 °C): -1.89 ± 0.076
self-splicing fitness (ln) (37 °C): -0.917 ± 0.097

CAACAGCAAUAUUACGUAUG
self-splicing fitness (ln) (30 °C): -2.88 ± 0.12
self-splicing fitness (ln) (37 °C): -1.35 ± 0.1

CAACAGCAAUAUUACGUCCU
self-splicing fitness (ln) (30 °C): -2.08 ± 0.071
self-splicing fitness (ln) (37 °C): -1.6 ± 0.094

CAAGAGCAAUAUUACGAAGG
self-splicing fitness (ln) (30 °C): -2.06 ± 0.17
self-splicing fitness (ln) (37 °C): -0.821 ± 0.19

CAAGAGCAAUAUUACGACGG
self-splicing fitness (ln) (30 °C): -0.504 ± 0.087
self-splicing fitness (ln) (37 °C): 0.00208 ± 0.14

CAAGAGCAAUAUUACGAGAG
self-splicing fitness (ln) (30 °C): -3.74 ± 0.16
self-splicing fitness (ln) (37 °C): -1.83 ± 0.13

CAAGAGCAAUAUUACGAUAA
self-splicing fitness (ln) (30 °C): -3.21 ± 0.22
self-splicing fitness (ln) (37 °C): -1.79 ± 0.18

CAAGAGCAAUAUUACGCCAC
self-splicing fitness (ln) (30 °C): -2.38 ± 0.36

CAAGAGCAAUAUUACGCGAA
self-splicing fitness (ln) (30 °C): -3.05 ± 0.26
self-splicing fitness (ln) (37 °C): -2.98 ± 0.4

CAAGAGCAAUAUUACGGAUA
self-splicing fitness (ln) (30 °C): -2.87 ± 0.23
self-splicing fitness (ln) (37 °C): -2.32 ± 0.29

CAAGAGCAAUAUUACGGCAU
self-splicing fitness (ln) (30 °C): -3.14 ± 0.23
self-splicing fitness (ln) (37 °C): -2.02 ± 0.21

CAAGAGCAAUAUUACGGCCA
self-splicing fitness (ln) (30 °C): -2.08 ± 0.38
self-splicing fitness (ln) (37 °C): -2.62 ± 0.48

CAAGAGCAAUAUUACGGCGG
self-splicing fitness (ln) (30 °C): -0.86 ± 0.069
self-splicing fitness (ln) (37 °C): -0.283 ± 0.094

CAAGAGCAAUAUUACGGCUA
self-splicing fitness (ln) (30 °C): -3.05 ± 0.31
self-splicing fitness (ln) (37 °C): -1.97 ± 0.22

CAAGAGCAAUAUUACGGUGA
self-splicing fitness (ln) (30 °C): -3.01 ± 0.2
self-splicing fitness (ln) (37 °C): -1.88 ± 0.21

CAAGAGCAAUAUUACGUAAG
self-splicing fitness (ln) (30 °C): -0.178 ± 0.084
self-splicing fitness (ln) (37 °C): -0.217 ± 0.12

CAAGAGCAAUAUUACGUAUC
self-splicing fitness (ln) (30 °C): -3.78 ± 0.17
self-splicing fitness (ln) (37 °C): -2.67 ± 0.2

CAAGAGCAAUAUUACGUCAU
self-splicing fitness (ln) (30 °C): -4.3 ± 0.24
self-splicing fitness (ln) (37 °C): -3.57 ± 0.17

CAAGAGCAAUAUUACGUGGG
self-splicing fitness (ln) (30 °C): -3.54 ± 0.21
self-splicing fitness (ln) (37 °C): -2.64 ± 0.19

CAAGAGCAAUAUUACGUGUG
self-splicing fitness (ln) (30 °C): -2.56 ± 0.1
self-splicing fitness (ln) (37 °C): -1.5 ± 0.092

CAAGAGCAAUAUUACGUUAU
self-splicing fitness (ln) (30 °C): -4.08 ± 0.19
self-splicing fitness (ln) (37 °C): -2.78 ± 0.17

CAAGAGCAAUAUUACGUUCG
self-splicing fitness (ln) (30 °C): -1.27 ± 0.089
self-splicing fitness (ln) (37 °C): -0.199 ± 0.11

CAAUAGCAAUAUUACGCACA
self-splicing fitness (ln) (30 °C): -2.3 ± 0.12
self-splicing fitness (ln) (37 °C): -1.4 ± 0.12

CAAUAGCAAUAUUACGCAUA
self-splicing fitness (ln) (30 °C): -2.99 ± 0.18
self-splicing fitness (ln) (37 °C): -2.08 ± 0.18

CAAUAGCAAUAUUACGCAUG
self-splicing fitness (ln) (30 °C): -1.35 ± 0.091
self-splicing fitness (ln) (37 °C): -0.845 ± 0.11

CAAUAGCAAUAUUACGCGAU
self-splicing fitness (ln) (30 °C): -3.99 ± 0.23
self-splicing fitness (ln) (37 °C): -2.92 ± 0.29

CAAUAGCAAUAUUACGCUAG
self-splicing fitness (ln) (30 °C): -2.49 ± 0.15
self-splicing fitness (ln) (37 °C): -1.86 ± 0.19

CAAUAGCAAUAUUACGGAAA
self-splicing fitness (ln) (30 °C): -3.49 ± 0.19
self-splicing fitness (ln) (37 °C): -2.83 ± 0.32

CAAUAGCAAUAUUACGGCUC
self-splicing fitness (ln) (30 °C): -1.08 ± 0.15
self-splicing fitness (ln) (37 °C): -0.901 ± 0.23

CAAUAGCAAUAUUACGGGCU
self-splicing fitness (ln) (30 °C): -3.42 ± 0.16
self-splicing fitness (ln) (37 °C): -1.4 ± 0.12

CAAUAGCAAUAUUACGGGUC
self-splicing fitness (ln) (30 °C): -3.28 ± 0.34
self-splicing fitness (ln) (37 °C): -2.4 ± 0.48

CAAUAGCAAUAUUACGUAAU
self-splicing fitness (ln) (30 °C): -3.35 ± 0.21
self-splicing fitness (ln) (37 °C): -1.92 ± 0.18

CAAUAGCAAUAUUACGUCAG
self-splicing fitness (ln) (30 °C): -1.95 ± 0.066
self-splicing fitness (ln) (37 °C): -1.12 ± 0.07

CAAUAGCAAUAUUACGUGAU
self-splicing fitness (ln) (30 °C): -3.98 ± 0.14
self-splicing fitness (ln) (37 °C): -2.5 ± 0.12

CACAAGCAAUAUUACGAAAC
self-splicing fitness (ln) (37 °C): -1.91 ± 0.25

CACAAGCAAUAUUACGAACC
self-splicing fitness (ln) (30 °C): -2.66 ± 0.47
self-splicing fitness (ln) (37 °C): -1.98 ± 0.36

CACAAGCAAUAUUACGACUG
self-splicing fitness (ln) (30 °C): -0.95 ± 0.046
self-splicing fitness (ln) (37 °C): 0.337 ± 0.064

CACAAGCAAUAUUACGAGGC
self-splicing fitness (ln) (30 °C): -3.54 ± 0.16
self-splicing fitness (ln) (37 °C): -2.87 ± 0.19

CACAAGCAAUAUUACGCCCG
self-splicing fitness (ln) (30 °C): -0.276 ± 0.12
self-splicing fitness (ln) (37 °C): 0.193 ± 0.15

CACAAGCAAUAUUACGCCUG
self-splicing fitness (ln) (30 °C): -1.87 ± 0.16
self-splicing fitness (ln) (37 °C): -0.812 ± 0.19

CACAAGCAAUAUUACGGAUU
self-splicing fitness (ln) (30 °C): -3.91 ± 0.2
self-splicing fitness (ln) (37 °C): -2.61 ± 0.2

CACAAGCAAUAUUACGGCCG
self-splicing fitness (ln) (30 °C): -0.104 ± 0.077
self-splicing fitness (ln) (37 °C): 0.524 ± 0.1

CACAAGCAAUAUUACGGGUA
self-splicing fitness (ln) (30 °C): -1.26 ± 0.07
self-splicing fitness (ln) (37 °C): -0.601 ± 0.076

CACAAGCAAUAUUACGGGUG
self-splicing fitness (ln) (30 °C): -3.99 ± 0.1
self-splicing fitness (ln) (37 °C): -2.94 ± 0.11

CACAAGCAAUAUUACGGUAU
self-splicing fitness (ln) (30 °C): -3.8 ± 0.14
self-splicing fitness (ln) (37 °C): -2.35 ± 0.12

CACAAGCAAUAUUACGUGAC
self-splicing fitness (ln) (30 °C): -4.87 ± 0.34
self-splicing fitness (ln) (37 °C): -2.77 ± 0.2

CACAAGCAAUAUUACGUGCC
self-splicing fitness (ln) (30 °C): -3.26 ± 0.14
self-splicing fitness (ln) (37 °C): -2.48 ± 0.14

CACAAGCAAUAUUACGUGUA
self-splicing fitness (ln) (30 °C): -3.53 ± 0.13
self-splicing fitness (ln) (37 °C): -1.78 ± 0.093

CACAAGCAAUAUUACGUUUG
self-splicing fitness (ln) (30 °C): -2.89 ± 0.078
self-splicing fitness (ln) (37 °C): -2.14 ± 0.089

CACCAGCAAUAUUACGAAUC
self-splicing fitness (ln) (30 °C): -4.57 ± 0.31
self-splicing fitness (ln) (37 °C): -0.445 ± 0.18

CACCAGCAAUAUUACGAGUC
self-splicing fitness (ln) (30 °C): -4.09 ± 0.19
self-splicing fitness (ln) (37 °C): -1.74 ± 0.14

CACCAGCAAUAUUACGAGUU
self-splicing fitness (ln) (30 °C): -2.42 ± 0.075
self-splicing fitness (ln) (37 °C): -1.65 ± 0.087

CACCAGCAAUAUUACGCAAC
self-splicing fitness (ln) (30 °C): -2.68 ± 0.48
self-splicing fitness (ln) (37 °C): -2.85 ± 0.28

CACCAGCAAUAUUACGCACU
self-splicing fitness (ln) (30 °C): -3.96 ± 0.21
self-splicing fitness (ln) (37 °C): -1.59 ± 0.12

CACCAGCAAUAUUACGCAUG
self-splicing fitness (ln) (30 °C): -1.29 ± 0.062
self-splicing fitness (ln) (37 °C): -0.787 ± 0.07

CACCAGCAAUAUUACGCGCG
self-splicing fitness (ln) (30 °C): -0.00123 ± 0.053
self-splicing fitness (ln) (37 °C): 0.499 ± 0.069

CACCAGCAAUAUUACGCGGA
self-splicing fitness (ln) (30 °C): -2.85 ± 0.15
self-splicing fitness (ln) (37 °C): -0.595 ± 0.088

CACCAGCAAUAUUACGCGGC
self-splicing fitness (ln) (30 °C): -2.68 ± 0.21
self-splicing fitness (ln) (37 °C): -2.72 ± 0.29

CACCAGCAAUAUUACGCUAC
self-splicing fitness (ln) (30 °C): -5.01 ± 0.45
self-splicing fitness (ln) (37 °C): -2.1 ± 0.16

CACCAGCAAUAUUACGGAUG
self-splicing fitness (ln) (30 °C): -3.11 ± 0.12
self-splicing fitness (ln) (37 °C): -1.84 ± 0.12

CACCAGCAAUAUUACGGAUU
self-splicing fitness (ln) (30 °C): -2.05 ± 0.055
self-splicing fitness (ln) (37 °C): -1.36 ± 0.085

CACCAGCAAUAUUACGGCGA
self-splicing fitness (ln) (30 °C): -1.62 ± 0.061
self-splicing fitness (ln) (37 °C): -1.23 ± 0.063

CACCAGCAAUAUUACGGCGC
self-splicing fitness (ln) (30 °C): -2.3 ± 0.11
self-splicing fitness (ln) (37 °C): -1.5 ± 0.13

CACCAGCAAUAUUACGUACU
self-splicing fitness (ln) (30 °C): -3.08 ± 0.2
self-splicing fitness (ln) (37 °C): -2.21 ± 0.2

CACCAGCAAUAUUACGUAGU
self-splicing fitness (ln) (30 °C): -3.23 ± 0.075
self-splicing fitness (ln) (37 °C): -1.53 ± 0.079
